The record followed here is PMC7346168, “Redox Conformation-Specific Protein–Protein Interactions of the 2-Cysteine Peroxiredoxin in Arabidopsis” (Antioxidants, 2020).

The target of experiment [1] is T1, 2-cysteine peroxiredoxin A, wild type (2-CysPRXA WT) (Arabidopsis, UniProt Q96291 66-266).
T1 sequence (looked up): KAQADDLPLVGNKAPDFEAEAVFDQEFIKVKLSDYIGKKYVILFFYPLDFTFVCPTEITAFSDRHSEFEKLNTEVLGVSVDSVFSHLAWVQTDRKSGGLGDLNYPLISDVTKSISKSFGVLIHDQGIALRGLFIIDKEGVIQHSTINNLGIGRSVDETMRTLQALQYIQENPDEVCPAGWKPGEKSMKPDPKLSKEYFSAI
As to the kind of experiment: cell-based or functional assay.

The target of experiment [2] is T1, 2-cysteine peroxiredoxin A, wild type …. Description: ITC; LOX2 injected into 2-CysPRX WT under reducing conditions (proteins treated with 10 mM DTT, dialysed); 35 mM HEPES pH 8.0. The following applies: both partners purified.
The target in experiment [3] is T2, 2-cysteine peroxiredoxin A, wild type (2-CysPRXA WT) (Arabidopsis, UniProt Q96291 66-266).
T2 chain: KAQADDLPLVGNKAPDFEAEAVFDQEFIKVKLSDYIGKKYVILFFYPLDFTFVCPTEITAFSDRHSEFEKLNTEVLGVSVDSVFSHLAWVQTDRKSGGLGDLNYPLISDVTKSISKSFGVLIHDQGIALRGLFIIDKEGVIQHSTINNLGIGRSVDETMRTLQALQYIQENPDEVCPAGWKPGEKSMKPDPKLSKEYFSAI
Description: ITC; reduced (unit printed as M).

In experiment [4] the target is T3, 2-CysPRXA C54S (pseudo-reduced variant) (Arabidopsis, UniProt Q96291 66-266, C54S).
T3 construct: 2-Cys peroxiredoxin A, Arabidopsis; source: E. coli BL21, recombinant (pET28a)
T3 sequence (looked up): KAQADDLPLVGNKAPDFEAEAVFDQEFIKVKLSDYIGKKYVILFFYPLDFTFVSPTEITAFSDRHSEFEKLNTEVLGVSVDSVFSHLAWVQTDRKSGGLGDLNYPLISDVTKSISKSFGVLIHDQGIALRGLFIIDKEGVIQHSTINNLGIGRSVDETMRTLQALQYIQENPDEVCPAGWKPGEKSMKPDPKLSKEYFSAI
As to the kind of experiment: ITC; CP12-1 injected into 2-CysPRXA C54S under oxidizing conditions (proteins treated with 1 mM H2O2, dialysed); 35 mM HEPES pH 8.0. The settings on record: both partners purified.

Experiment [5] addresses T4, 2-CysPRXA C54S (pseudo-reduced variant) (Arabidopsis, UniProt Q96291 66-266, C54S).
T4 sequence: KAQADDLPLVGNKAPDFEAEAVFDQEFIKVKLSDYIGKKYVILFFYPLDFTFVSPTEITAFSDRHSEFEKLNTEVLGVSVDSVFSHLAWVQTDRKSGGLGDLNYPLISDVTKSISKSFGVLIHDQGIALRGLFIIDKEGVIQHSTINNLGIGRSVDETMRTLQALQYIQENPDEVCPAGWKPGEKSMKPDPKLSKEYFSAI
Description: ITC; oxidized (unit printed as M).

B1: LIPOXYGENASE 2, recombinant hisx6-tagged (enzyme, Arabidopsis thaliana, UniProt P38418 71-896, looked up)
chain: QNIKVKGYITAQEEFLEGITWSRGLDDIADIRGRSLLVELISAKTDQRITVEDYAQRVWAEAPDEKYECEFEMPEDFGPVGAIKIQNQYHRQLFLKGVELKLPGGSITFTCESWVAPKSVDPTKRIFFSDKSYLPSQTPEPLKKYRKEELETLQGKNREEVGEFTKFERIYDYDVYNDVGDPDNDPELARPVIGGLTHPYPRRCKTGRKPCETDPSSEQRYGGEFYVPRDEEFSTAKGTSFTGKAVLAALPSIFPQIESVLLSPQEPFPHFKAIQNLFEEGIQLPKDAGLLPLLPRIIKALGEAQDDILQFDAPVLINRDRFSWLRDDEFARQTLAGLNPYSIQLVEEWPLISKLDPAVYGDPTSLITWEIVEREVKGNMTVDEALKNKRLFVLDYHDLLLPYVNKVRELNNTTLYASRTLFFLSDDSTLRPVAIELTCPPNINKPQWKQVFTPGYDATSCWLWNLAKTHAISHDAGYHQLISHWLRTHACTEPYIIAANRQLSAMHPIYRLLHPHFRYTMEINARARQSLVNGGGIIETCFWPGKYALELSSAVYGKLWRFDQEGLPADLIKRGLAEEDKTAEHGVRLTIPDYPFANDGLILWDAIKEWVTDYVKHYYPDEELITSDEELQGWWSEVRNIGHGDKKDEPWWPVLKTQDDLIGVVTTIAWVTSGHHAAVNFGQYGYGGYFPNRPTTTRIRMPTEDPTDEALKEFYESPEKVLLKTYPSQKQATLVMVTLDLLSTHSPDEEYIGEQQEASWANEPVINAAFERFKGKLQYLEGVIDERNVNITLKNRAGAGVVKYELLKPTSEHGVTGMGVPYSISI
notes: Lipoxygenase 2, Arabidopsis thaliana; the limits follow from them; also called LOX2; 13-LIPOXYGENASE; source: E. coli BL21, recombinant (pET15b)
B1: in experiment [1], the “LOX2-catalysed peroxidation of α-linolenic acid (absorbance at 234 nm), 0.5 µM LOX2 with 0.5 µM oxidized 2-CysPRXA; rate against LOX2 alone” value amounted to 2.4 fold and the “LOX2-catalysed peroxidation of α-linolenic acid (absorbance at 234 nm), 0.5 µM LOX2 with 0.5 µM reduced 2-CysPRXA; rate against LOX2 alone” value was found to be 1.4 fold. Also, the “stoichiometry N” value in experiment [2] is about 1. In addition, in experiment [3], the Ka is 4.18e+07 M⁻¹.

B2: CHLOROPLAST PROTEIN 12-1, recombinant hisx6-tagged (natural protein, Arabidopsis thaliana, UniProt O22914 48-124, looked up)
chain: TSEGEISEKVEKSIQEAKETCADDPVSGECVAAWDEVEELSAAASHARDKKKAGGSDPLEEYCNDNPETDECRTYDN
notes: Calvin cycle protein CP12-1, Arabidopsis thaliana; also called CP12-1; CHLOROPLAST REGULATOR; source: E. coli BL21, recombinant
With B2, in experiment [4], the “stoichiometry N” value was about 1. This molecule also came in with a Ka in experiment [5] of 3.91e+06 M⁻¹.
